Reference: patent publication US20110207116A1 (University of California, published 2011)

T1: PhyB(1-650)-10aaLinker-mCherry-Kras4BCT (Arabidopsis thaliana, UniProt P14713 1-650, phycocyanobilin (PCB) chromophore covalently bound; C-terminal CaaX prenylation sequence)
T1 construct: Expressed in NIH3T3 cells at the plasma membrane; also called pAL117; PhyB-NT; not shown: mCherry fluorescent protein, amplified from a vector
T1 sequence: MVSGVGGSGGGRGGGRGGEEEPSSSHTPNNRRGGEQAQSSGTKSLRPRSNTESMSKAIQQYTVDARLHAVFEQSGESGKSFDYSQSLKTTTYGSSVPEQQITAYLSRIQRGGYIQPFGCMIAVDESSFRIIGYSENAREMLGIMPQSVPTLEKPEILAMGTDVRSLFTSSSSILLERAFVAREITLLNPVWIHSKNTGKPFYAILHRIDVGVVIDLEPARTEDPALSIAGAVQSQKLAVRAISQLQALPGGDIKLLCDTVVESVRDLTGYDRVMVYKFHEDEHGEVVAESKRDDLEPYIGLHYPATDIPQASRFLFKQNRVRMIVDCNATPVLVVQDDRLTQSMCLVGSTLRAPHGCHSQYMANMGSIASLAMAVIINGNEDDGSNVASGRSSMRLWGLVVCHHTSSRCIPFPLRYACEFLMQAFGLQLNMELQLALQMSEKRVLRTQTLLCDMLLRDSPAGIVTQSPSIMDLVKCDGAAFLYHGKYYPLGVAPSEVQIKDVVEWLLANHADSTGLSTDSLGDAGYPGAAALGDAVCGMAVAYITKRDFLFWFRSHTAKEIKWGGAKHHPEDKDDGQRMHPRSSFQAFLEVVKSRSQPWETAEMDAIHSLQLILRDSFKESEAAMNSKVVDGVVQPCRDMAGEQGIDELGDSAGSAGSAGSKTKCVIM

T2: PhyB(1-450)-10aaLinker-mCherry-Kras4BCT (Arabidopsis thaliana, UniProt P14713 1-450, phycocyanobilin (PCB) chromophore covalently bound; C-terminal CaaX prenylation sequence)
T2 construct: Expressed in NIH3T3 cells at the plasma membrane; also called pAL161; PhyB-CBD; not shown: mCherry fluorescent protein, amplified from a vector
T2 sequence: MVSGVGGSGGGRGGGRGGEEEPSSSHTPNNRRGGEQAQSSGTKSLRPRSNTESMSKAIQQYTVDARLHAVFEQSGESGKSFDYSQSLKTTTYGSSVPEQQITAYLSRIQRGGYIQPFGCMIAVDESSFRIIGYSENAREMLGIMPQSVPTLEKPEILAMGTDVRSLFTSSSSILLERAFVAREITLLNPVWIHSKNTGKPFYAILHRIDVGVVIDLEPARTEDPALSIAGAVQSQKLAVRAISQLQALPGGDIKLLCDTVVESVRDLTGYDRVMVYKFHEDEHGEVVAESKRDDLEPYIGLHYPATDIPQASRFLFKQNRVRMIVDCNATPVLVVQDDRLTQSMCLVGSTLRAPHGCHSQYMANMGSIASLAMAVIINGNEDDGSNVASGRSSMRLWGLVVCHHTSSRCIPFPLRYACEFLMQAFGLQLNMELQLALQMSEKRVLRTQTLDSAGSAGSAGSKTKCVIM

T3: PhyBFL-10aaLinker-mCherry-Kras4BCT (Arabidopsis thaliana, UniProt P14713 1-1172, phycocyanobilin (PCB) chromophore covalently bound; C-terminal CaaX prenylation sequence)
T3 construct: also called pAL162; PhyB full length; not shown: mCherry fluorescent protein, amplified from a vector
T3 sequence: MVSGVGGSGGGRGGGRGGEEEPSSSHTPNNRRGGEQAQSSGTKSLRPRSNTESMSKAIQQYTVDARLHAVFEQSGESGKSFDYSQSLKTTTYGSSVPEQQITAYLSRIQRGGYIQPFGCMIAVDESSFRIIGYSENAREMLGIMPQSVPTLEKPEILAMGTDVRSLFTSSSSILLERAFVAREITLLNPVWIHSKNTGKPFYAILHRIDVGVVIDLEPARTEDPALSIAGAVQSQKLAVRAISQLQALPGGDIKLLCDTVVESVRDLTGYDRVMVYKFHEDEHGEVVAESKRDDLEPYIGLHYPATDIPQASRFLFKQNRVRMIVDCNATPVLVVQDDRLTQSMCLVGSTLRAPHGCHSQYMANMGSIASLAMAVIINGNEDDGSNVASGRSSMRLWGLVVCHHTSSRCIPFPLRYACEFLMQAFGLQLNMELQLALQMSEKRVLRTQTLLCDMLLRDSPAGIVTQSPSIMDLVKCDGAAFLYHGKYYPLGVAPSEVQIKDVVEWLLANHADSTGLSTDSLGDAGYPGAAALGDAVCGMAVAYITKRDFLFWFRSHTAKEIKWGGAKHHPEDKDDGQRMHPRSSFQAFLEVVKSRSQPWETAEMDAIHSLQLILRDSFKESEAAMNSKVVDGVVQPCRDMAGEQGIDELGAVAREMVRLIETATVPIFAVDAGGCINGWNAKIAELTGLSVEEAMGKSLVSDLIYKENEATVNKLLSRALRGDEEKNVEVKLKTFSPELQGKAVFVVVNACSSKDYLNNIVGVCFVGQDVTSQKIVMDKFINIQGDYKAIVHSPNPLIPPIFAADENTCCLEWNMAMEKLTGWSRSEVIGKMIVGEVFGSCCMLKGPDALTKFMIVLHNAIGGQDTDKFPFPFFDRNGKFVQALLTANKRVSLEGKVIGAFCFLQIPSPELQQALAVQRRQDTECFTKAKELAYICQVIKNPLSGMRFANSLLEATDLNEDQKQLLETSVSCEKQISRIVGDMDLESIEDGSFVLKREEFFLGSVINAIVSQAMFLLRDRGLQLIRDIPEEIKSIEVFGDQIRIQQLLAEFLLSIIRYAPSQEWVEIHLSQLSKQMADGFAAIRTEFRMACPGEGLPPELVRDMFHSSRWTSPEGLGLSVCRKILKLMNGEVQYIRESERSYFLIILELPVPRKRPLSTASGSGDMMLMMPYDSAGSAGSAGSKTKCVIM

B1: PhyB(1-908)-10aaLinker-mCherry-Kras4BCT (other)
chain: MVSGVGGSGGGRGGGRGGEEEPSSSHTPNNRRGGEQAQSSGTKSLRPRSNTESMSKAIQQYTVDARLHAVFEQSGESGKSFDYSQSLKTTTYGSSVPEQQITAYLSRIQRGGYIQPFGCMIAVDESSFRIIGYSENAREMLGIMPQSVPTLEKPEILAMGTDVRSLFTSSSSILLERAFVAREITLLNPVWIHSKNTGKPFYAILHRIDVGVVIDLEPARTEDPALSIAGAVQSQKLAVRAISQLQALPGGDIKLLCDTVVESVRDLTGYDRVMVYKFHEDEHGEVVAESKRDDLEPYIGLHYPATDIPQASRFLFKQNRVRMIVDCNATPVLVVQDDRLTQSMCLVGSTLRAPHGCHSQYMANMGSIASLAMAVIINGNEDDGSNVASGRSSMRLWGLVVCHHTSSRCIPFPLRYACEFLMQAFGLQLNMELQLALQMSEKRVLRTQTLLCDMLLRDSPAGIVTQSPSIMDLVKCDGAAFLYHGKYYPLGVAPSEVQIKDVVEWLLANHADSTGLSTDSLGDAGYPGAAALGDAVCGMAVAYITKRDFLFWFRSHTAKEIKWGGAKHHPEDKDDGQRMHPRSSFQAFLEVVKSRSQPWETAEMDAIHSLQLILRDSFKESEAAMNSKVVDGVVQPCRDMAGEQGIDELGAVAREMVRLIETATVPIFAVDAGGCINGWNAKIAELTGLSVEEAMGKSLVSDLIYKENEATVNKLLSRALRGDEEKNVEVKLKTFSPELQGKAVFVVVNACSSKDYLNNIVGVCFVGQDVTSQKIVMDKFINIQGDYKAIVHSPNPLIPPIFAADENTCCLEWNMAMEKLTGWSRSEVIGKMIVGEVFGSCCMLKGPDALTKFMIVLHNAIGGQDTDKFPFPFFDRNGKFVQALLTANKRVSLEGKVIGAFCFLQIPSDSAGSAGSAGSKTKCVIM
modifications: phycocyanobilin (PCB) chromophore covalently bound; C-terminal CaaX prenylation sequence
notes: Expressed in NIH3T3 cells, localized to the plasma membrane; also called pAL149; PhyB908; not shown: mCherry fluorescent protein, amplified from a vector

What was measured:
[1] = biological target: T4, PIF6APB-mYFP-20aaLinker-Rac1(Q61L)ΔCT (Arabidopsis thaliana, UniProt P63000 1-188); assay: global light-activated membrane translocation in NIH3T3 cells, red light
T4 construct: also called pAL105; Rac1(Q61L, no caax); not shown: mYFP: EYFP with monomerizing A206K mutation

[2] = biological target: B1; assay: YFP membrane translocation in NIH3T3 cells, confocal microscopy
[3] = biological target: T1, PhyB(1-650)-10aaLinker-mCherry-Kras4BCT; assay: as above
[4] = biological target: T2, PhyB(1-450)-10aaLinker-mCherry-Kras4BCT; assay: as above
[5] = biological target: T5, PhyB(1-650)-Gal4DD-10aaLinker-mCherry-Kras4BCT (Arabidopsis thaliana; Saccharomyces …, UniProt P04386 50-106, phycocyanobilin (PCB) chromophore covalently bound; C-terminal CaaX prenylation sequence); assay: as above
T5 construct: also called pAL148; not shown: mCherry fluorescent protein, amplified from a vector

[6] = biological target: T3, PhyBFL-10aaLinker-mCherry-Kras4BCT; assay: as above

Binder	binding result [1]	binding result [2]	binding result [3]	binding result [4]	binding result [5]	binding result [6]
B1	binds	–	–	–	–	–
PIF3APB-mYFP (other, also called pAL100; PIF3-100NT; not shown: mYFP: EYFP with monomerizing A206K mutation) MPLFELFRLTKAKLESAQDRNPSPPVDEVVELVWENGQISTQSQSSRSRNIPPPQANSSRAREIGNGSKTTMVDEIPMSVPSLMTGLSQDDDFVPWLNHH	–	no binding	no binding	no binding	no binding	no binding
